Measured values reported in patent US20040077535A1 (Takeda / Millennium, published 2004).

B1: snake venom Mamba Intestinal Toxin 1 (MIT1) (ligand)
peptide: AVITGACERDLQCGKGTCCAVSLWIKSVRVCTPVGTSGEDCHPASHKIPFSGQRMHHTCPCAPNLACVQTSPKKFKCLSK
notes: also called snake venom MIT1; non-labeled MIT1
B2: human type ZAQ ligand mature peptide (type G, 86 amino acid residues) (ligand)
peptide: AVITGACERDVQCGAGTCCAISLWLRGLRMCTPLGREGEECHPGSHKVPFFRKRKHHTCPCLPNLLCSRFPDGRYRCSMDLKNINF
notes: also called human type ZAQ ligand peptide; ZAQL-1

Columns and labels:
[1] = biological target: T1, G protein-coupled receptor protein ZAQ (human, UniProt Q8TCW9 1-393); experiment: displacement of 125I-MIT1 from ZAQC-B1 CHO cell membrane fraction, glass fiber filter binding assay
T1 construct: Stably expressed in CHO/dhfr- cells (clone ZAQC-B1); Whole cells in the FLIPR assays; also called ZAQ receptor; ZAQC-B1 cells

[2] = biological target: T2, human type I5E receptor protein (human, UniProt Q8NFJ6 1-384); experiment: displacement of 125I-MIT1 from I5E-4 CHO cell membrane fraction, glass fiber filter binding assay
T2 construct: Stably expressed in CHO/dhfr- cells (clone I5E-4); Whole cells in the FLIPR assays; also called ISE receptor; I5E-4 cell

[3] = biological target: T1, G protein-coupled receptor protein ZAQ; experiment: cell-based or functional assay

T1 sequence (Q8TCW9 whole entry): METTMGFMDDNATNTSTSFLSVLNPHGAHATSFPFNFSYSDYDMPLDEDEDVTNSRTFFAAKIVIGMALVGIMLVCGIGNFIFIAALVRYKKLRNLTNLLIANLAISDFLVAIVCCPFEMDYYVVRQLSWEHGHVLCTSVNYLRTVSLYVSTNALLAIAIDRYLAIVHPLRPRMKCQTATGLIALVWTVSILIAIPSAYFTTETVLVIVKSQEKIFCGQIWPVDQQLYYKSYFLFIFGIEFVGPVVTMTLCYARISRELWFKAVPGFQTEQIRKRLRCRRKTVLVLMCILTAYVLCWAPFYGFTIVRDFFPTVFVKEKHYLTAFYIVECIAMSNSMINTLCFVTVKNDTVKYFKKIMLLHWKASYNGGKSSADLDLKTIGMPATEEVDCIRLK
T2 sequence (Q8NFJ6 whole entry): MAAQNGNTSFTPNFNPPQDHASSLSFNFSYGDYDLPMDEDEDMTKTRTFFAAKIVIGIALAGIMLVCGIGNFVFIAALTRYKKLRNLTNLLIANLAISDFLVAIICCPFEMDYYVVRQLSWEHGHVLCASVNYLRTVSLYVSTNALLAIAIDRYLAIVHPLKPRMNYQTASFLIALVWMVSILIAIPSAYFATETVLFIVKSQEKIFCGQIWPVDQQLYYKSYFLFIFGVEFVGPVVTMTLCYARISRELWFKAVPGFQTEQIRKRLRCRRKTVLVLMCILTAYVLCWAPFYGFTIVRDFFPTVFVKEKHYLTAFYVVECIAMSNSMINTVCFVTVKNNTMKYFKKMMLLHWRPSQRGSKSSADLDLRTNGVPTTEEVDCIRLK

Binder	IC50 [1] [pM]	IC50 [2] [pM]	increase of the intracellular calcium ion concentration (FLIPR), EC50 [3] [pM]
B1	38	32	–
B2	35	93	96
